Data from paper PMC3409459, “Absorption, distribution, metabolism and excretion of peginesatide, a novel erythropoiesis-stimulating agent, in rats” (Xenobiotica; the Fate of Foreign Compounds in Biological …, 2011).
Where two headings read alike, the source gives them in different places.

Assays:
[1] = Plasma pharmacokinetics of unlabeled peginesatide after a single IV dose (ELISA); assay type: in vivo, male Sprague-Dawley rats; settings: for time for which plasma concentrations were quantifiable: LLOQ 40 ng/mL; for AUC0–t / CL / t½ / Cmax: plasma, mean (SD), n=3; for Cmax: value at 0.25 h
Procedure: Plasma samples were analyzed for peginesatide concentration using a competition enzyme linked immunosorbent assay (ELISA) as previously described ([Fan et al. 2006]). The capture anti-peginesatide antibody was a high affinity polyclonal antibody preparation directed against the peptidic part of the molecule so the assay detects mono- and di-PEG-conjugated peptide as well as free peptide. The lower limit of quantitation was 40 ng-mL^1, the intra assay precision (% coefficient of variation) was 5-10% and the intra assay accuracy (% bias) was 1.9-5.7%.
The PK of peginesatide was assessed in male Sprague-Dawley rats following the administration of unlabeled and radiolabeled test article. The linearity of the PK profile was evaluated in rats (n = 3/group) administered a single IV dose of peginesatide at 0.1, 0.5, or 5 mg·kg^−1. Blood samples were collected predose and 0.25,1, 6, and 24h, and 2,3, 5, 7,10,14,17, 21, 24, and 28 days following dosing. Samples were analyzed by ELISA.
Noncompartmental PK parameters for peginesatide and metabolites were generated using WinNonlin ver. 4.0, Pharsight Corporation (Mountain View, CA). The maximum plasma concentration (Cmax) and their times of occurrence (tmax) were obtained directly from the mean plasma concentration vs. time profiles. The areas under the plasma concentration-time curves […] were estimated by the linear trapezoidal rule - by adding all the area portions under the curve from time zero to the time of the last observed plasma concentration (tn). Elimination rate constants (kz) were estimated by fitting a linear regression of log mean concentration against time data in the terminal exponential phase (at least 3 data points). Apparent terminal half-life (t1/2) was calculated as In2/λz. The AUC0-inf was calculated as the sum of AUC0-t and Cobs/λz, where Cobs, was the actual concentration at the time of the last quantifiable concentration. The plasma clearance (CL) for peginesatide was estimated as the ratio of dose/ AUC0-inf. The mean residence time (MRT) was calculated as the ratio of AUMC0-inf/AUC0-inf, where AUMC0-inf was the area under the first moment curve from the time zero to infinity. The volume of distribution at steady state (Vss) was estimated as CL x MRT.

[2] = ref Im et al. 2010, cited from earlier work
Text: The totality of the metabolism data is consistent with in vitro studies conducted in liver and kidney micro-somes and S9 fractions from rats, monkeys, and human donors ([Im et al. 2010]).

[3] = Quantitative whole body autoradiography (QWBA) tissue distribution; assay type: in vivo, male Sprague-Dawley rats; settings: for the radiolabel distribution and QWBA studies
Procedure: Tissue distribution of radioactivity was assessed by quantitative whole-body autoradiography (QWBA) in addition to determination of radioactivity tissue levels by LSC. At various time points following the administration of the desired QWBA target dose of 100 uCi/kg [^14C]-peginesatide, equating to a 17mg/kg dose of peginesatide, the rats were anesthetized with isoflurane and blood (−3-4 mL) was collected via cardiac puncture. Anesthetized rats were sacrificed by immersion in a hexane dryicebath. Carcasseswere embedded in 2% carboxymethylceilulose over solid CO2 to ensure the block was retained frozen, and then stored at −20°C until sectioning. In addition, ^14C radioactivity standards were embedded with each carcass to provide a context for quantification and for quality control purposes.
Samples were sectioned onto adhesive tape (Nakagawa NA-70 MAG, Japan) at five levels of interest in the sagittal plane, with all major tissues, organs, and biological fluids represented. […] To quantitate radioactivity in tissues, a calibration standard curve was constructed using American Radiolabeled Chemicals, Inc ARC 146 standards. The autoradiographic image data for the calibration standards and specified tissues, organs, and fluids were quantified using Imaging Research Inc. AIS software. […]

[4] = In vivo metabolite profiling, plasma and tissues at 14 days; set-up: species or system male Sprague-Dawley rats; settings: single IV 5 mg/kg [^14C]-peginesatide; HPLC fractions/LSC; n = 3
[5] = cited from earlier work
Procedure: Erythropoietin is deficient in patients with CKD-associated anemia. Administration of ESAs, such as peginesatide, leads to activation of the appropriate signaling at the EPO receptor ([Fan et al. 2006]). […] The principal findings in the single and repeat dose toxicity studies are primarily attributed to the pharmacological effects of peginesatide and secondary sequelae when an ESA is administered to an initially nor ...

Peginesatide
time for which plasma concentrations were quantifiable ([1]; 0.1 mg·kg^−1 IV): 3 days
AUC0–t ([1]; 0.1 mg·kg^−1 IV): 60.3 (4.71) μg·h/mL
CL ([1]; 0.1 mg·kg^−1 IV): 1.65 (0.13) mL/h/kg
t½ ([1]; 0.1 mg·kg^−1 IV): 17.5 (0.3) h
Cmax ([1]; 0.1 mg·kg^−1 IV): 2.56 (0.162) μg/mL
AUC0–t ([1]; 0.5 mg·kg^−1 IV): 388 (48.8) μg·h/mL
CL ([1]; 0.5 mg·kg^−1 IV): 1.29 (0.18) mL/h/kg
t½ ([1]; 0.5 mg·kg^−1 IV): 19.7 (2.6) h
Cmax ([1]; 0.5 mg·kg^−1 IV): 13.5 (1.40) μg/mL
time for which plasma concentrations were quantifiable ([1]; 5 mg·kg^−1 IV): up to 7 days
AUC0–t ([1]; 5 mg·kg^−1 IV): 5405 (327) μg·h/mL
CL ([1]; 5 mg·kg^−1 IV): 0.92 (0.06) mL/h/kg
t½ ([1]; 5 mg·kg^−1 IV): 31.6 (3.4) h
Cmax ([1]; 5 mg·kg^−1 IV): 137 (6.19) μg/mL
metabolites after incubation with microsomes (metabolic stability in vitro) ([2]; human donor liver and kidney microsomes and S9 fractions): no metabolites were observed
metabolites after incubation with microsomes (metabolic stability in vitro) ([2]; monkey liver and kidney microsomes and S9 fractions): no metabolites were observed
metabolites after incubation with microsomes (metabolic stability in vitro) ([2]; rat liver and kidney microsomes and S9 fractions): no metabolites were observed
bone marrow to bone ratios [3]: 11-25
Day 14 concentration, Kidneys [4]: 2.64 μg equiv·g^−1 or mL
reticulocytes and hemoglobin levels ([5]; single IV administration in humans, ref Stead et al. 2006): dose-dependent increases in reticulocytes and hemoglobin levels
reticulocytes and hemoglobin levels ([5]; single IV administration in rats, ref Fan et al. 2006): dose-dependent increases in reticulocytes and hemoglobin levels
